Biological target: IGF1R (on MCF-7 cells) (UniProt P08069)
Test: cell-based or functional assay

Chain of UniProt P08069 (P08069 31-1367 limits assumed): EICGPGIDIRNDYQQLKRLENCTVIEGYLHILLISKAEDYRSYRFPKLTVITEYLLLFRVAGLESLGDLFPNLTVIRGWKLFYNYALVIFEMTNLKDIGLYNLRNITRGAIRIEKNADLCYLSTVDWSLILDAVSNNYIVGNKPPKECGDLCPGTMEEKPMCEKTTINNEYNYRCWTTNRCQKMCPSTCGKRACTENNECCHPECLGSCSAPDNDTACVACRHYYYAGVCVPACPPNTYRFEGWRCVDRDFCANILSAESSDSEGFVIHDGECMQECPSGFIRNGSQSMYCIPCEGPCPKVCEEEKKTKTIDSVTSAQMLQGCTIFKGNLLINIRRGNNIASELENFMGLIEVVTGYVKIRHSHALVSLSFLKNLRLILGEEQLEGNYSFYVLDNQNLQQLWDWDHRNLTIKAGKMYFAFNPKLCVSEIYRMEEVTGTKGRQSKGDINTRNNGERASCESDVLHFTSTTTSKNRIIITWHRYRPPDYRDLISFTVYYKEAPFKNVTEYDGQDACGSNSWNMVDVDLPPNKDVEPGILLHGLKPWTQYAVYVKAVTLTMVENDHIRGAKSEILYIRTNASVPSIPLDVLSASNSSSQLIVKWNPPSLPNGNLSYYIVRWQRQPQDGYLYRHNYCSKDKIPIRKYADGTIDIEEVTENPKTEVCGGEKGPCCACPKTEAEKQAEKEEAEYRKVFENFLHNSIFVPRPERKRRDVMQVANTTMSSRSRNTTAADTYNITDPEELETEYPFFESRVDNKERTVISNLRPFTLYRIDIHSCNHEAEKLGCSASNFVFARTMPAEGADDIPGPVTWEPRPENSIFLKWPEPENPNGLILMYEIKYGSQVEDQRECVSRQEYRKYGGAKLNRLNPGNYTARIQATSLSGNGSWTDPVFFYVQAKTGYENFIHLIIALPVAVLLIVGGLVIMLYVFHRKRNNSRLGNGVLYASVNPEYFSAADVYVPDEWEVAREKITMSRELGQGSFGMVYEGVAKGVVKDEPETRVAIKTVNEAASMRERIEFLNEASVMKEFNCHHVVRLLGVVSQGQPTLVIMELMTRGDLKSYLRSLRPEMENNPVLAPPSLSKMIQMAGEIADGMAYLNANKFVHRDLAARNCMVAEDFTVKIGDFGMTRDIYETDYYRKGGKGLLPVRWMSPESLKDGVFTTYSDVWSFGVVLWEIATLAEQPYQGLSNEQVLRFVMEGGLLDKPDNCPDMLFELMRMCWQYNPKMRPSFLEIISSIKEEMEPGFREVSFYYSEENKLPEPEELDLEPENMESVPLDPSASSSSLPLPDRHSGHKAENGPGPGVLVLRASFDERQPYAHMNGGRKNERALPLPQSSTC

% Inhibition, KIRA assay (IGF-I-stimulated receptor phosphorylation in MCF-7 cells), at 0.01 nM Ab (first row): -3.26%
% Inhibition, KIRA assay (IGF-I-stimulated receptor phosphorylation in MCF-7 cells), at 0.01 nM Ab (second row): -0.34%
% Inhibition, KIRA assay (IGF-I-stimulated receptor phosphorylation in MCF-7 cells), at 0.03 nM Ab: -3.18%
% Inhibition, KIRA assay (IGF-I-stimulated receptor phosphorylation in MCF-7 cells), at 0.05 nM Ab: 0.87%
% Inhibition, KIRA assay (IGF-I-stimulated receptor phosphorylation in MCF-7 cells), at 0.10 nM Ab: 3.82%
% Inhibition, KIRA assay (IGF-I-stimulated receptor phosphorylation in MCF-7 cells), at 0.21 nM Ab: 10.1%
% Inhibition, KIRA assay (IGF-I-stimulated receptor phosphorylation in MCF-7 cells), at 0.42 nM Ab: 18%
% Inhibition, KIRA assay (IGF-I-stimulated receptor phosphorylation in MCF-7 cells), at 0.83 nM Ab: 39.4%
% Inhibition, KIRA assay (IGF-I-stimulated receptor phosphorylation in MCF-7 cells), at 1.67 nM Ab: 40.5%
% Inhibition, KIRA assay (IGF-I-stimulated receptor phosphorylation in MCF-7 cells), at 3.34 nM Ab: 54.6%
% Inhibition, KIRA assay (IGF-I-stimulated receptor phosphorylation in MCF-7 cells), at 6.67 nM Ab: 69.6%
B1: 19D12 antibody (purified antibody obtained from 19D12 hybridoma) (antibody, from a related filing, V domains shown)
VH: EVQLVQSGGGLVHPGGSLRLSCAASGFTFSSFAMHWVRQAPGKGLEWISVIDTRGATYYADSVKGRFTISRDNAKNSLYLQMNSLRAEDMAVYYCARLGNFYYGMDVWGQGTTVTVSS
VL: EIVLTQVPDFQSVTPKEKVTITCRASQSIGSSLHWYQQKPDQSPKLLIKYASQSLSGVPSRFSGSGSGTDFTLTINSLEAEDAAAYYCHQSSRLPHTFGGGTKVEIKR
